According to patent US20220177587A1, “METHODS AND USES OF VARIANT CD80 FUSION PROTEINS AND RELATED CONSTRUCTS” (Alpine Immune Sciences, Inc., priority 2018, published 2022):
Where a chain is given by its changes, count along the chain named. Names and notes keep the numbering of the source.

B1: variant CD80 IgV-Fc E35D/T41S/M43I/M47L/A71G (Fc fusion)
chain: VIHVTKEVKEVATLSCGHNVSVEELAQTRIYWQKDKKMVLSMISGDLNIWPEYKNRTIFDITNNLSIVILGLRPSDEGTYECVVLKYEKDAFKREHLAEVTLSVKAD
B2: variant CD80 IgV-Fc V22D/E35D/M47L/L85Q (Fc fusion)
chain: B1 chain with V22D, S41T, I43M, G71A, L85Q
B3: variant CD80 IgV-Fc E35D/A71G (Fc fusion)
chain: B1 chain with S41T, I43M, L47M
B4: variant CD80 IgV-Fc H18Y/E35D/N48K (Fc fusion)
chain: B1 chain with H18Y, S41T, I43M, L47M, N48K, G71A
B5: variant CD80 IgV-Fc V22A/E35D/V68E/A71D (Fc fusion)
chain: B1 chain with V22A, S41T, I43M, L47M, V68E, G71D
B6: variant CD80 IgV-Fc H18Y/A26E/E35D/M47L/L85Q/D90G (Fc fusion)
chain: B1 chain with H18Y, A26E, S41T, I43M, G71A, L85Q, D90G
B7: variant CD80 IgV-Fc E35D/K37E/M47V/N48D/L85Q/D90N (Fc fusion)
chain: B1 chain with K37E, S41T, I43M, L47V, N48D, G71A, L85Q, D90N
B8: variant CD80 IgV-Fc E35D/T41S/M43I/M47V/A71G (Fc fusion)
chain: B1 chain with L47V
B9: variant CD80 IgV-Fc E35D/D46V/M47L/V68M/L85Q/E88D (Fc fusion)
chain: B1 chain with S41T, I43M, D46V, V68M, G71A, L85Q, E88D
B10: variant CD80 IgV-Fc M47L/L85Q (Fc fusion)
chain: B1 chain with D35E, S41T, I43M, G71A, L85Q
B11: variant CD80 IgV-Fc E35D/D46E/M47V/A71D (Fc fusion)
chain: B1 chain with S41T, I43M, D46E, L47V, G71D
B12: variant CD80 IgV-Fc E35D/M47V/N48T/L85Q (Fc fusion)
chain: B1 chain with S41T, I43M, L47V, N48T, G71A, L85Q
B13: variant CD80 IgV-Fc E35D/M47V/A71G (Fc fusion)
chain: B1 chain with S41T, I43M, L47V
B14: variant CD80 IgV-Fc Q33K/E35D/M47V/K89E/K93R (Fc fusion)
chain: B1 chain with Q33K, S41T, I43M, L47V, G71A, K89E, K93R
B15: variant CD80 IgV-Fc (inert) H18Y/A26P/E35D/M47V/V68M/A71G (Fc fusion)
chain: B1 chain with H18Y, A26P, S41T, I43M, L47V, V68M
B16: CD80 ECD (SEQ ID NO:2)-Fc (inert) with GSG4S linker (Fc fusion)
chain: VIHVTKEVKEVATLSCGHNVSVEELAQTRIYWQKEKKMVLTMMSGDMNIWPEYKNRTIFDITNNLSIVILALRPSDEGTYECVVLKYEKDAFKREHLAEVTLSVKADFPTPSISDFEIPTSNIRRIICSTSGGFPEPHLSWLENGEELNAINTTVSQDPETELYAVSSKLDFNMTTNHSFMCLIKYGHLRVNQTFNWNTTKQEHFPDNGSGGGGS
B17: variant CD80 IgV-Fc E35D/M47L/A71G/L85Q (Fc fusion)
chain: B1 chain with S41T, I43M, L85Q
B18: variant CD80 IgV-Fc V22D/E35D/M47L/L70M/L97Q (Fc fusion)
chain: B1 chain with V22D, S41T, I43M, L70M, G71A, L97Q

biological target: human CTLA-4 (human) (UniProt P16410); assay: flow cytometry, CHO cells expressing huCTLA4
Sequence (P16410 36-223): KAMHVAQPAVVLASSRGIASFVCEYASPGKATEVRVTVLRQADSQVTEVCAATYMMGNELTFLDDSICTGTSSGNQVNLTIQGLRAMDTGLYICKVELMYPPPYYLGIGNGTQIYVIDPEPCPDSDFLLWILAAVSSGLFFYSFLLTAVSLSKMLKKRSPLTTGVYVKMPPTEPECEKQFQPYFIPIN

| MFI at 33.3 nM | Binder |
| --- | --- |
| 209000 MFI | B1 |
| 256000 MFI | B2 |
| 184000 MFI | B3 |
| 261000 MFI | B4 |
| 437000 MFI | B5 |
| 231000 MFI | B6 |

biological target: human PD-L1 (human) (UniProt Q9NZQ7); assay: flow cytometry, CHO cells expressing huPD-L1
Sequence (Q9NZQ7 19-290): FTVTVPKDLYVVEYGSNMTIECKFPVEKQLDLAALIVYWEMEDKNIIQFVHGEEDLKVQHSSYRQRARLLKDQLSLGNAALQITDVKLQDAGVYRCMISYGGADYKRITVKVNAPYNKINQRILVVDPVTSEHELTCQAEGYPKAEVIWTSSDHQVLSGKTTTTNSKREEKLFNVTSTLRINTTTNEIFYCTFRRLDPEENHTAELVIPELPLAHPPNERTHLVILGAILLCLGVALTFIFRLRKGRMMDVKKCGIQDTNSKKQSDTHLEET

| MFI at 33.3 nM | Binder |
| --- | --- |
| 26500 MFI | B7 |
| 44400 MFI | B8 |
| 137000 MFI | B9 |
| 5800 MFI | B10 |
| 549 MFI | B11 |
| 35500 MFI | B12 |
| 36200 MFI | B13 |
| 34100 MFI | B3 |
| 1350 MFI | B5 |
| 52400 MFI | B6 |
| 39100 MFI | B14 |

biological target: CD28 (human) (UniProt P10747); assay: flow cytometry, Jurkat cells (CD28)

| MFI at 33.3 nM | Binder |
| --- | --- |
| 6910 MFI | B15 |
| 37 MFI | B16 |

biological target: CD28 (human) (UniProt P10747); assay: flow cytometry, Jurkat/IL2 reporter cells (endogenous CD28)

| MFI at 33.3 nM | Binder |
| --- | --- |
| 14000 MFI | B5 |
| 276 MFI | B14 |

biological target: CD28 (human) (UniProt P10747); assay: flow cytometry, Jurkat/IL2 reporter cells (CD28)

| MFI at 33.3 nM | Binder |
| --- | --- |
| 1440 MFI | B17 |
| 527 MFI | B18 |
| 2840 MFI | B8 |
| 88.1 MFI | B10 |
| 3100 MFI | B1 |
| 542 MFI | B2 |
| 692 MFI | B12 |
| 6360 MFI | B13 |
| 3540 MFI | B6 |

biological target: human PD-L1 (human) (UniProt Q9NZQ7); assay: flow cytometry, CHO cells stably expressing PD-L1

| MFI at 33.3 nM | Binder |
| --- | --- |
| 51500 MFI | B15 |
| 35 MFI | B16 |
